Reference: article PMC7239899

Tested on: RpsA WT (Mycobacterium tuberculosis H37Rv)
Test: MST
Details: MST: PBS-T/MST buffer with 0.1% Tween 20, 15 min at room temperature, 50 nM RpsA, tmRNA dilution series from 4.1 uM; EMSA buffer not given in material

Substance: tmRNA
- Kd: 0.0581 µM
